# Measurements as given in article PMC6281755 (Diabetes, obesity & metabolism, 2018).
# Where two headings read alike, the source gives them in different places.
# Experiments:
# [1] = test system: glucose metabolism; format: in vivo, dog; conditions: dogs, estimate (90% CI)
# [2] = dog, in vivo
# [3] = dog, in vivo, po
# [4] = dog, in vivo; remark: listed apart in the source
# [5] = in vivo; cited from earlier work
substance,measurement,setting,value
insulin tregopil,Mean difference (human insulin-tregopil): GIR AUC0-120 min,[1]; intraportal 3.6 pmol/kg/min,-24.1 mg/kg
same,"Mean difference (human insulin-tregopil): NHGB, last 30 min period 1",[1]; intraportal 3.6 pmol/kg/min,0.53 mg/kg/min
same,Mean difference (human insulin-tregopil): GIR AUC120-240 min,[1]; intraportal 12.0 pmol/kg/min,-74 mg/kg
same,"Mean difference (human insulin-tregopil): NHGB, last 30 min period 2",[1]; intraportal 12.0 pmol/kg/min,0.30 mg/kg/min
same,"Mean difference (human insulin-tregopil): non-hepatic glucose uptake, last 30 min period 2",[1]; intraportal 12.0 pmol/kg/min,-1.6 mg/kg/min
same,"Mean difference (human insulin-tregopil): ΔNHGB, period 1 to period 2",[1]; intraportal 3.6 then 12.0 pmol/kg/min,0.2 mg/kg/min
same,Fraction extracted on first-pass by the liver,[2],one-third
same,Cmax of first dose compared with second dose,[3],117%
same,Insulin AUC0–120 of first dose compared with second dose,[3],118%
same,Mean Cmax of first dose compared with second dose,[3],88%
same,tmax,[3],20 min
same,Median tmax,[4],20 min
same,Off-times,"dog, in vivo",≤ 120 min
same,tmax,"dog, in vivo",≤ 20 min
same,Duration of PD effect after a dose,"dogs, oral dose, statement in discussion",90 min
same,Time to peak concentration (tmax),[5],30 min
